Eight molecules from US20150104459A1 can be followed below.

Settings in all cases: remark: other sources report otherwise
Assay [1] addresses recombinant soluble homotrimeric HA of A/Anhui/1/05 (H5N1) (Influenza A virus A/Anhui/1/2005 (H5N1)). Description: HA microarray, BCC supernatant.
Assay [2] deals with recombinant soluble homotrimeric HA of A/California/4/09 (H1N1) (Influenza A virus A/California/04/2009 (H1N1)). The assay is described as follows: HA microarray, BCC supernatant.
For assay [3], the target named is recombinant soluble homotrimeric HA of A/Egypt/3300-NAMRU3/08 (H5N1) (Influenza A virus A/Egypt/3300-NAMRU3/2008 (H5N1)). Description: HA microarray, BCC supernatant.
For assay [4], the target named is recombinant soluble homotrimeric HA of A/Indonesia/5/05 (H5N1) (Influenza A virus A/Indonesia/5/2005 (H5N1)). Description: HA microarray, BCC supernatant.
For assay [5], the target named is recombinant soluble homotrimeric HA of A/Japan/305/57 (H2N2) (Influenza A virus A/Japan/305/1957 (H2N2)). Description: HA microarray, BCC supernatant.
Assay [6] deals with recombinant soluble homotrimeric HA of A/Netherlands/219/03 (H7N7) (Influenza A virus A/Netherlands/219/03 (H7N7)). The assay is described as follows: HA microarray, BCC supernatant.
Assay [7] has as its target recombinant soluble homotrimeric HA of A/Solomon Islands/3/06 (H1N1) (Influenza A virus A/Solomon Islands/3/2006 (H1N1)). Description: HA microarray, BCC supernatant.
Assay [8] has as its target recombinant soluble homotrimeric HA of A/Vietnam/1203/04 (H5N1) (Influenza A virus A/Vietnam/1203/2004 (H5N1)). Description: HA microarray, BCC supernatant.
The target of assay [9] is recombinant soluble homotrimeric HA of A/Wisconsin/67/05 (H3N2) (Influenza A virus A/Wisconsin/67/2005 (H3N2)). Description: HA microarray, BCC supernatant.
For assay [10], the target named is recombinant soluble homotrimeric HA of A/chicken/Vietnam/NCVD-016/08 (H5N1) (Influenza A virus A/chicken/Vietnam/NCVD-016/2008 (H5N1)). Description: HA microarray, BCC supernatant.
The target of assay [11] is recombinant soluble homotrimeric HA of A/duck/Yangzhou/02/2005 (H8N4) (Influenza A virus A/duck/Yangzhou/02/2005 (H8N4)). The assay is described as follows: HA microarray, BCC supernatant.
The target of assay [12] is recombinant soluble homotrimeric HA of A/northern shoveler/California/HKWF115/2007 (H6N1) (Influenza A virus A/northern shoveler/California/HKWF115/2007 (H6N1)). Description: HA microarray, BCC supernatant.
Assay [13] addresses recombinant soluble homotrimeric HA of A/swine/Ontario/01911-2/99 (H4N6) (Influenza A virus A/Swine/Ontario/01911-2/99 (H4N6)). Description: HA microarray, BCC supernatant.
Assay [14] concerns the target recombinant soluble homotrimeric HA, A/Anhui/1/05 (H5N1) (influenza A virus A/Anhui/1/2005 (H5N1)). The assay is described as follows: microarray, trimeric HA, transfection supernatant.
Assay [15] addresses recombinant soluble homotrimeric HA, A/Hong Kong/156/97 (H5N1) (influenza A virus A/Hong Kong/156/97 (H5N1)). The assay is described as follows: microarray, trimeric HA, transfection supernatant.
The target of assay [16] is recombinant soluble homotrimeric HA, A/chicken/Vietnam/NCVD-016/08 (H5N1) (influenza A virus A/chicken/Vietnam/NCVD-016/2008 (H5N1)). The assay is described as follows: microarray, trimeric HA, transfection supernatant.
For assay [17], the target named is recombinant soluble homotrimeric HA, A/duck/Yangzhou/02/2005 (H8N4) (influenza A virus A/duck/Yangzhou/02/2005 (H8N4)). The assay is described as follows: microarray, trimeric HA, transfection supernatant.
The target in assay [18] is recombinant soluble homotrimeric HA, A/northern shoveler/California/HKWF115/2007 (H6N1) (influenza A virus A/northern shoveler/California/HKWF115/2007 (H6N1)). The assay is described as follows: microarray, trimeric HA, transfection supernatant.

B1: TCN-563 (5237_B21) (antibody, V domains shown)
VH: QVQLAQSGAEVKRPGSSVKVSCTASGGIFRKNAISWVRQAPGQGLEWMGGIIAVFNTANYAQKFQGRVKITADESGNTAYMELSSLRSDDTAVYYCASHPKYFYGSGSYPDFWGQGTLVTVSS
VL: QSALTQPRSVSGSPGQSVTISCTGSSSDVGASNSVSWYQQHPGKAPKLVIYDVTERPSGVPHRFSGSKSGNTASLTVSGLQPEDEADYFCCAYGGKYLVVFGGGTKVTVL
Take B1: the Trimeric HA Binding RLU in [1] turned out to be 9580 RLU; in assay [2], 45200 RLU; in assay [3], 27500 RLU; in assay [4], 39500 RLU; in assay [5], 6610 RLU; in [6], 7520 RLU. The Trimeric HA Binding RLU in [7] came to 30000 RLU; in assay [8] it was 4840 RLU; in assay [9] it was 40800 RLU; in [10] it was 41000 RLU; in assay [11], 46700 RLU; in [12], 27300 RLU. For the same molecule, in [13], the Trimeric HA Binding RLU amounted to 4500 RLU.

B2: TCN-532 (5262_H18) (antibody, V domains shown)
VH: QVQLQESGPGLVKPSETLSLTCTVSGGSVSSETYYWSWIRQPPGKGLEWIGYIYYIGNTDYRPSLKSRVTISLDTSKNQFSLKLSSVTAADTAVYYCARGAYYDSSGYPAFYIWGQGTMVTVSS
VL: QSVLTQPPSVSGAPGQRVTISCTGSSSNIGSDYDVHWYKQLPGTAPKLLIFGNSNRPSGVPDRFSGSKSGTSASLAITGLQAEDEADYYCQSYDSSLSGFHVFGSGTKVTVL
Turning to B2, the Trimeric HA Binding RLU in [5] is 176 RLU; in assay [6] it was 327 RLU; in assay [7] it was 327 RLU; in [9] it was 18000 RLU; in assay [10], 46 RLU; in assay [12], 511 RLU. The Trimeric HA Binding RLU in [13] came to 119 RLU.

B3: TCN-536 (5095_N01) (antibody, V domains shown)
VH: QVQLQQWGAGLLKPSETLSLTCAVYGGSFSVSGYYWSWIRQPPGRGLEWIGEISHGGSTNYNPSLKSRVTISVDTTKNQFSLRLSSVTAADTAVYYCARGTDPDTEVYCRVGNCAAFDYWGQGSLVTVSS
VL: EIILAQSPGTLSLSPGERATLSCRASQFVSTRSLAWYQQRPGQAPRLLIYGASSRATGIPDRFSGSGSGTDFTLTISRLEPEDFAVYYCQHYGYSPRYAFGQGSKVEIK
Turning to B3, the Trimeric HA Binding RLU turned out to be 151 RLU in assay [2]; 121 RLU in assay [5]; 35000 RLU in assay [9]; 287 RLU in assay [10]; 79 RLU in assay [13].

B4: TCN-553 (5261_C18) (antibody, V domains shown)
VH: QVQVVQSGTEVKKPGSSVKVSCQTSGGRFMSYAITWVRQAPGQGLEWMGGIVPVFGTANYAQKFQGRVTITTDDSTRTAYMELSSLRSEDTAVYYCGFRYGSGYGFDSWGQGTLVTVSS
VL: EIVLTQSPGTLSLSPGERATLSCRASQSVSSSYLAWYQKKPGQAPRLLIYGASTRATGIPDRFTGSGSGTDFTLSISRLEPEDFAVYYCQHFGTSVFTFGGGTKVEIK
For the molecule B4, the Trimeric HA Binding RLU turned out to be 12600 RLU in [1]; 20300 RLU in assay [2]; 18800 RLU in assay [3]; 24400 RLU in assay [4]; 25500 RLU in assay [5]; 16300 RLU in assay [7]. Moreover, the Trimeric HA Binding RLU in assay [8] is 6560 RLU; in assay [9] it was 20000 RLU; in assay [10], 24200 RLU; in assay [11], 28000 RLU; in [12], 21700 RLU; in assay [13], 2580 RLU. Besides, the Trimeric HA Binding RLU in [14] came to 8550 RLU; in [15], 36300 RLU; in assay [16], 34700 RLU; in [17] it was 12500 RLU; in assay [18], 32500 RLU.

B5: TCN-537 (3194_D21) (antibody, V domains shown)
VH: QVQLQQWGSGLLKPSETLSLTCAVYGGSFRDDYWTWIRQPPGKGLEWIGEINHSGRTNYNPSLKSRVTISVDTSLKQFSLKVISVTAADTAVYYCARGTSHVSRYFDWLPPTNWFDPWGQGTQVTVSS
VL: DIVLTQSPGTLSLSPGERATLSCRASQSVSSSYLAWYQQKPGQAPRLVMYGAATRATGIPDRFSGSGSGPDFTLTISRLEPEDFAMYYCQQYGNSPITFGQGTRLEIK
As for B5, the Trimeric HA Binding RLU came out at 21900 RLU in assay [2]; 38200 RLU in assay [3]; 14900 RLU in assay [4]; 44700 RLU in assay [5]; 549 RLU in [9]; 8620 RLU in [10]. The Trimeric HA Binding RLU in assay [11] came to 7830 RLU; in [12], 5210 RLU; in [13], 19 RLU; in assay [15] it was 10700 RLU; in assay [16], 4480 RLU; in assay [17], 25500 RLU.

B6: TCN-530 (5248_H10a) (antibody, V domains shown)
VH: QVQLVQSGAEVRKPGSSVKVSCKASGGPFMSYAIGWVRQAPGQGLEWMGGINPVFGRPHYAQKFQGRVTIATDDSTKTSYMELSSLTSEDTGMYYCASRYSRSSPGTFESWGQGTLVTVSS
VL: EIVMTQFPATLSVSPGERVTLSCRASQSVSNNLAWYQQKPGQPPRLLIYDASTRATGVPAKFSGTGSGTEFTLSISSLQSEDFAVYYCQQYHNWPPSYSFGLGTKLEIK
Regarding B6, the Trimeric HA Binding RLU in assay [1] worked out at 11900 RLU; in assay [2], 46600 RLU; in assay [3], 30400 RLU; in assay [4], 39800 RLU; in [5], 47000 RLU; in assay [7] it was 32800 RLU. Besides, the Trimeric HA Binding RLU in [8] came out at 7150 RLU; in assay [9] it was 36800 RLU; in assay [10], 48300 RLU; in assay [12] it was 45300 RLU.

B7: TCN-548 (5092_P01) (antibody, V domains shown)
VH: QVQLQESGPGLVKPSETLSLTCTVSSGPMSDYYWSWIRQPPGKGLEWIGHVSVSHGGRTKSNPSVMSRVTISVETSKNQFSLKLTSVTAADTAVYYCARLNYYDRSGYHSPDGPSNNWFDPWGQGTLVTVSS
VL: not shown
As to B7, the Trimeric HA Binding RLU was 234 RLU in assay [2]; 416 RLU in assay [5]; 283 RLU in assay [7]; 254 RLU in assay [10]; 184 RLU in assay [11]; 314 RLU in assay [12]. The Trimeric HA Binding RLU amounted to 1060 RLU in assay [16], 5740 RLU in assay [17] and 2100 RLU in [18].

B8: TCN-552 (5249_I23) (antibody, V domains shown)
VH: QVQVVQSGAEVKKPGSSVRVSCQASGGTFMNYAIIWVRRAPGQGLEWMGGIIPVFPTPNYAQMFQGRVTISTDESRSTSFLELTNLRYEDTAVYYCARRIYHGGNSGFDFWGQGTLVTVSS
VL: EIVLTQSPATLSLSPGERATLSCRASQSVGNYLAWYQQKPGQAPRLLIYDSSNRAPGIPARFSGSGSGTDFTLTISSLAPEDFAVYYCQQRSKWPPMYSFGHGTKLEIK
Take B8: the Trimeric HA Binding RLU in assay [1] was determined as 4160 RLU; in [2], 35300 RLU; in assay [3], 40000 RLU; in [4] it was 43600 RLU; in [5], 23800 RLU; in assay [7], 39300 RLU. In addition, the Trimeric HA Binding RLU in [8] came to 2730 RLU; in assay [9], 14800 RLU; in assay [10], 46200 RLU; in [11] it was 13100 RLU; in [12], 38400 RLU; in assay [15] it was 36300 RLU. In addition, the Trimeric HA Binding RLU came to 34500 RLU in assay [16], 15900 RLU in assay [17] and 43900 RLU in assay [18].
